In publication doi:10.1101/2024.10.29.618823 (bioRxiv, 2024):
Read-outs that look alike come from different tables or passages of the source.

Tests used:
Assay in all cases: cryo-EM structure
[1] = target: the molecule itself
[2] = target: the molecule itself; remark: listed apart in the source
[3] = target: the molecule itself; remark: listed apart in the source

B1: Csy3 (natural protein)
chain: MSKPILSTASVLAFERKLDPSDALMSAGAWAQRDASQEWPAVTVREKSVRGTISNRLKTKDRDPAKLDASIQSPNLQTVDVANLPSDADTLKVRFTLRVLGGAGTPSACNDAAYRDKLLQTVATYVNDQGFAELARRYAHNLANARFLWRNRVGAEAVEVRINHIRQGEVARAWRFDALAIGLRDFKADAELDALAELIASGLSGSGHVLLEVVAFARIGDGQEVFPSQELILDKGDKKGQKSKTLYSVRDAAAIHSQKIGNALRTIDTWYPDEDGLGPIAVEPYGSVTSQGKAYRQPKQKLDFYTLLDNWVLRDEAPAVEQQHYVIANLIRGGVFGEAEEK
- stoichiometry N [1]: 6
- stoichiometry N [2]: 5
- stoichiometry N [3]: 4
